One may read the koff as the first-order rate constant of dissociation. A word on the kon: it is the second-order rate constant of association. What is called Kd is the equilibrium constant for the complex coming apart.

Test [1] concerns the target cHSP27 (isolated alpha-crystallin domain of HSP27) (human) (UniProt P04792). Put plainly: 15N CPMG relaxation dispersion NMR; same data as a2; pB fixed at the value expected from the titration Kd (4.9% WT, 7.2% P182L) and delta R2 allowed to be non-zero.
Test [2] has the same target. Put plainly: 15N CPMG relaxation dispersion NMR; 2H,15N-cHSP27 1.5 mM with 80 µM WT or 200 µM P182L peptide, 25 °C, 11.7 and 14.1 T; naive two-state fit (delta R2 = 0), kon and koff from pB and kex; apparent.
The target is the same in test [3]. Description: NMR titration; 2D 1H-15N HSQC titration of 15N-cHSP27 (oxidised, disulfide-linked dimer) with unlabelled peptide, 25 °C, 30 mM sodium phosphate, 2 mM EDTA, pH 7; two-state 2D lineshape fit with TITAN on fast- and slow-exchange residues; apparent.
Test [4] shares this target. Description: NMR titration; earlier TITAN lineshape fit of the HSQC titration, as told in the first response to reviewers.
For test [5] the target is unchanged. Description: 15N CPMG relaxation dispersion NMR; earlier two-state fit of the CPMG RD data, as told in the first response to reviewers; koff = kex(1-pB), kon = kex pB/[L]free.
Test [6] has as its target cHSP27, isolated alpha-crystallin domain (ACD) of HSP27, oxidized disulfide-linked dimer (human) (UniProt P04792). Description: NMR titration; 2D 1H-15N HSQC of 15N-cHSP27 (oxidized dimer) with unlabeled peptide, 25 C, 30 mM sodium phosphate, 2 mM EDTA, pH 7; global fit of CSPs of fast-exchange resonances to a two-state model (equation 2).
Test [7] has the same target. Description: NMR 15N CPMG relaxation dispersion; 2H,15N-cHSP27 (oxidized dimer) 1.5 mM with 80 uM WT peptide or 200 uM P182L peptide, 25 C, 500 and 600 MHz; naive two-state fit.
The target is the same in test [8]. Description: NMR titration; same HSQC titration, 25 C; 2D lineshape analysis with TITAN, fast- and slow-exchange residues fitted globally.

Take “P182L peptide (C-terminal IxI/V peptide of HSP27 with the CMT mutation P182L)”: the off-rate constant (koff) in test [1] was 547 s⁻¹; in test [3], 771 s⁻¹; in test [4], 774 s⁻¹; in test [5], 840 s⁻¹. Also, the kon in test [1] is 500000 M⁻¹ s⁻¹; in test [2], 73000 M⁻¹ s⁻¹; in test [3], 600000 M⁻¹ s⁻¹; in test [5], 83000 M⁻¹ s⁻¹.
Take “P182L peptide comprising the mutated IxI/V (ILV) motif of the HSP27 C-terminal region”: the Kd in test [6] came out at 1030 µM; in test [7], 8370 µM; in test [8] it was 1280 µM. The koff in test [7] was found to be 610 s⁻¹. Besides, the pB (percent of cHSP27 bound, by CPMG RD) in test [7] is 2%.
In the case of “WT peptide (C-terminal IxI/V peptide of HSP27)”, the koff in test [1] is 346 s⁻¹; in test [3] it was 207 s⁻¹; in test [5], 759 s⁻¹. The kon in test [1] was 2.8e+06 M⁻¹ s⁻¹; in test [2] it was 290000 M⁻¹ s⁻¹; in test [3], 1.6e+06 M⁻¹ s⁻¹; in test [5], 300000 M⁻¹ s⁻¹.
Take “WT peptide comprising the IxI/V (IPV) motif of the HSP27 C-terminal region”: in test [6], the Kd amounted to 124 µM. In test [7], this substance showed a Kd of 1760 µM; a koff of 515 s⁻¹; a pB (percent of cHSP27 bound, by CPMG RD) of 2.4%. The dissociation constant (Kd) in test [8] amounted to 132 µM.

Source of the values: article PMC8047445.
